Test results taken from publication PMC7407834 (2020).
Ends that are not written are not given here.

Legend:
[1] = biological target: T1, phage clone 1 peptide (phage-displayed); experiment: ELISA
T1 chain: GHIPTCLTPMCR

[2] = biological target: T2, USPIO-LRPep2 (not fully specified (N-terminus, bridges); cysteine pairing not given here; also: grafted to USPIO nanoparticle); experiment: ELISA
T2 chain: HPWCCGLRLDLR

B1: LDLR 22-788 (protein)
chain: not shown
Binder B1 has a Kd [1] of 0.136 nM and a Kd [2] of 72.5 nM.
